T1: human amylin receptor (human calcitonin receptor + human RAMP3) (human) (UniProt P30988)
T1 sequence (looked up) 1: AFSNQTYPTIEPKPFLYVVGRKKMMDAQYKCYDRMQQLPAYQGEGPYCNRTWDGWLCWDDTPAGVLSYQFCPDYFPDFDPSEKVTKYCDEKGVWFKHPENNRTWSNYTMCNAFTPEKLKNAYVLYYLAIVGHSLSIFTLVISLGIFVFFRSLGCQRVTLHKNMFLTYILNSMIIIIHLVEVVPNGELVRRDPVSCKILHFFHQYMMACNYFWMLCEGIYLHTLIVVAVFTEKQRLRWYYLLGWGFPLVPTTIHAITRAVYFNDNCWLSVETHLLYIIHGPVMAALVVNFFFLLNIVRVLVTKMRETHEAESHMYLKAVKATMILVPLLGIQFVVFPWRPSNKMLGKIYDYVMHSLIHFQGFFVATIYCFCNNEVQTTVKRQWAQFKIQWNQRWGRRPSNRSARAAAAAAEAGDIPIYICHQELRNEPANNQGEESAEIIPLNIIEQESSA
T1 sequence (looked up) 2: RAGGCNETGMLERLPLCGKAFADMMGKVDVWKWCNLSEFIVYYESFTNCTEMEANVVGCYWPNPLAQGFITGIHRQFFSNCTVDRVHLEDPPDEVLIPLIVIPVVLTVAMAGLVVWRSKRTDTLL

B1: [N-terminal(C20 diacid-gGlu), des1, 4Q, 9V, 15Q, 16R, 19R, 21Q, 23Y, 27Q, 30S, 31Q, 32T, 33Y]mimylin (peptide)
peptide: {C20 diacid-γGlu}-ASQLSTAVLGRLSQRLHRLQTYPRTQTGSQTY-NH2
SMILES: CC(C)C[C@H](NC(=O)[C@H](CCCNC(=N)N)NC(=O)CNC(=O)[C@H](CC(C)C)NC(=O)[C@@H](NC(=O)[C@H](C)NC(=O)[C@@H](NC(=O)[C@H](CO)NC(=O)[C@H](CC(C)C)NC(=O)[C@H](CCC(N)=O)NC(=O)[C@H](CO)NC(=O)[C@H](C)NC(=O)CC[C@H](NC(=O)CCCCCCCCCCCCCCCCCCC(=O)O)C(=O)O)[C@@H](C)O)C(C)C)C(=O)N[C@@H](CO)C(=O)N[C@@H](CCC(N)=O)C(=O)N[C@@H](CCCNC(=N)N)C(=O)N[C@@H](CC(C)C)C(=O)N[C@@H](Cc1c[nH]cn1)C(=O)N[C@@H](CCCNC(=N)N)C(=O)N[C@@H](CC(C)C)C(=O)N[C@@H](CCC(N)=O)C(=O)N[C@H](C(=O)N[C@@H](Cc1ccc(O)cc1)C(=O)N1CCC[C@H]1C(=O)N[C@@H](CCCNC(=N)N)C(=O)N[C@H](C(=O)N[C@@H](CCC(N)=O)C(=O)N[C@H](C(=O)NCC(=O)N[C@@H](CO)C(=O)N[C@@H](CCC(N)=O)C(=O)N[C@H](C(=O)N[C@@H](Cc1ccc(O)cc1)C(N)=O)[C@@H](C)O)[C@@H](C)O)[C@@H](C)O)[C@@H](C)O
B2: [N-terminal(C20 diacid-gGlu), des1, 4G, 8L, 9V, 15Q, 21Q, 23Y, 30S, 31Q, 32T, 33Y]mimylin (peptide)
peptide: {C20 diacid-γGlu}-ASGLSTLVLGRLSQELHELQTYPRTETGSQTY-NH2
SMILES: CC(C)C[C@H](NC(=O)CNC(=O)[C@H](CO)NC(=O)[C@H](C)NC(=O)CC[C@H](NC(=O)CCCCCCCCCCCCCCCCCCC(=O)O)C(=O)O)C(=O)N[C@@H](CO)C(=O)N[C@H](C(=O)N[C@@H](CC(C)C)C(=O)N[C@H](C(=O)N[C@@H](CC(C)C)C(=O)NCC(=O)N[C@@H](CCCNC(=N)N)C(=O)N[C@@H](CC(C)C)C(=O)N[C@@H](CO)C(=O)N[C@@H](CCC(N)=O)C(=O)N[C@@H](CCC(=O)O)C(=O)N[C@@H](CC(C)C)C(=O)N[C@@H](Cc1c[nH]cn1)C(=O)N[C@@H](CCC(=O)O)C(=O)N[C@@H](CC(C)C)C(=O)N[C@@H](CCC(N)=O)C(=O)N[C@H](C(=O)N[C@@H](Cc1ccc(O)cc1)C(=O)N1CCC[C@H]1C(=O)N[C@@H](CCCNC(=N)N)C(=O)N[C@H](C(=O)N[C@@H](CCC(=O)O)C(=O)N[C@H](C(=O)NCC(=O)N[C@@H](CO)C(=O)N[C@@H](CCC(N)=O)C(=O)N[C@H](C(=O)N[C@@H](Cc1ccc(O)cc1)C(N)=O)[C@@H](C)O)[C@@H](C)O)[C@@H](C)O)[C@@H](C)O)C(C)C)[C@@H](C)O
B3: [N-terminal(C20 diacid-gGlu), des1, 9V, 15Q, 21Q, 23Y, 30S, 31G, 32T, 33Y]mimylin (peptide)
peptide: {C20 diacid-γGlu}-ASELSTAVLGRLSQELHELQTYPRTETGSGTY-NH2
SMILES: CC(C)C[C@H](NC(=O)[C@H](CCCNC(=N)N)NC(=O)CNC(=O)[C@H](CC(C)C)NC(=O)[C@@H](NC(=O)[C@H](C)NC(=O)[C@@H](NC(=O)[C@H](CO)NC(=O)[C@H](CC(C)C)NC(=O)[C@H](CCC(=O)O)NC(=O)[C@H](CO)NC(=O)[C@H](C)NC(=O)CC[C@H](NC(=O)CCCCCCCCCCCCCCCCCCC(=O)O)C(=O)O)[C@@H](C)O)C(C)C)C(=O)N[C@@H](CO)C(=O)N[C@@H](CCC(N)=O)C(=O)N[C@@H](CCC(=O)O)C(=O)N[C@@H](CC(C)C)C(=O)N[C@@H](Cc1c[nH]cn1)C(=O)N[C@@H](CCC(=O)O)C(=O)N[C@@H](CC(C)C)C(=O)N[C@@H](CCC(N)=O)C(=O)N[C@H](C(=O)N[C@@H](Cc1ccc(O)cc1)C(=O)N1CCC[C@H]1C(=O)N[C@@H](CCCNC(=N)N)C(=O)N[C@H](C(=O)N[C@@H](CCC(=O)O)C(=O)N[C@H](C(=O)NCC(=O)N[C@@H](CO)C(=O)NCC(=O)N[C@H](C(=O)N[C@@H](Cc1ccc(O)cc1)C(N)=O)[C@@H](C)O)[C@@H](C)O)[C@@H](C)O)[C@@H](C)O
B4: [N-terminal(C20 diacid-gGlu), des1, 4G, 15Q, 21Q, 23Y, 25H, 30S, 31G, 32T, 33Y]mimylin (peptide)
peptide: {C20 diacid-γGlu}-ASGLSTAALGRLSQELHELQTYPHTETGSGTY-NH2
SMILES: CC(C)C[C@H](NC(=O)CNC(=O)[C@H](CO)NC(=O)[C@H](C)NC(=O)CC[C@H](NC(=O)CCCCCCCCCCCCCCCCCCC(=O)O)C(=O)O)C(=O)N[C@@H](CO)C(=O)N[C@H](C(=O)N[C@@H](C)C(=O)N[C@@H](C)C(=O)N[C@@H](CC(C)C)C(=O)NCC(=O)N[C@@H](CCCNC(=N)N)C(=O)N[C@@H](CC(C)C)C(=O)N[C@@H](CO)C(=O)N[C@@H](CCC(N)=O)C(=O)N[C@@H](CCC(=O)O)C(=O)N[C@@H](CC(C)C)C(=O)N[C@@H](Cc1c[nH]cn1)C(=O)N[C@@H](CCC(=O)O)C(=O)N[C@@H](CC(C)C)C(=O)N[C@@H](CCC(N)=O)C(=O)N[C@H](C(=O)N[C@@H](Cc1ccc(O)cc1)C(=O)N1CCC[C@H]1C(=O)N[C@@H](Cc1c[nH]cn1)C(=O)N[C@H](C(=O)N[C@@H](CCC(=O)O)C(=O)N[C@H](C(=O)NCC(=O)N[C@@H](CO)C(=O)NCC(=O)N[C@H](C(=O)N[C@@H](Cc1ccc(O)cc1)C(N)=O)[C@@H](C)O)[C@@H](C)O)[C@@H](C)O)[C@@H](C)O)[C@@H](C)O
B5: [N-terminal(C20 diacid-gGlu), des1, 4G, 9T, 15Q, 21Q, 23Y, 25P, 30S, 31G, 32T, 33Y]mimylin (peptide)
peptide: {C20 diacid-γGlu}-ASGLSTATLGRLSQELHELQTYPPTETGSGTY-NH2
SMILES: CC(C)C[C@H](NC(=O)CNC(=O)[C@H](CO)NC(=O)[C@H](C)NC(=O)CC[C@H](NC(=O)CCCCCCCCCCCCCCCCCCC(=O)O)C(=O)O)C(=O)N[C@@H](CO)C(=O)N[C@H](C(=O)N[C@@H](C)C(=O)N[C@H](C(=O)N[C@@H](CC(C)C)C(=O)NCC(=O)N[C@@H](CCCNC(=N)N)C(=O)N[C@@H](CC(C)C)C(=O)N[C@@H](CO)C(=O)N[C@@H](CCC(N)=O)C(=O)N[C@@H](CCC(=O)O)C(=O)N[C@@H](CC(C)C)C(=O)N[C@@H](Cc1c[nH]cn1)C(=O)N[C@@H](CCC(=O)O)C(=O)N[C@@H](CC(C)C)C(=O)N[C@@H](CCC(N)=O)C(=O)N[C@H](C(=O)N[C@@H](Cc1ccc(O)cc1)C(=O)N1CCC[C@H]1C(=O)N1CCC[C@H]1C(=O)N[C@H](C(=O)N[C@@H](CCC(=O)O)C(=O)N[C@H](C(=O)NCC(=O)N[C@@H](CO)C(=O)NCC(=O)N[C@H](C(=O)N[C@@H](Cc1ccc(O)cc1)C(N)=O)[C@@H](C)O)[C@@H](C)O)[C@@H](C)O)[C@@H](C)O)[C@@H](C)O)[C@@H](C)O

From US20160272683A1 (Novo Nordisk, published 2016) come the findings set out here.

Numbered stars: 1 amine (or outer) side, 2 acyl side, 3 side chain; on linkers, the order of the positions; unused ones are H or OH. * marks the point of attachment. C20 diacid = O=C(O)CCCCCCCCCCCCCCCCCCC(=O)*; γGlu = O=C(O)[C@H](CCC(=O)[*:2])N[*:1]

The target in the first experiment is T1, human amylin receptor (human calcitonin receptor + human RAMP3) (human). Briefly: whole-cell competition vs 125I-rat amylin (Assay Va).
As usually defined, the IC50 is the midpoint of a concentration-inhibition curve. For the molecule B1, the IC50 came out at 3.7 nM.

Consider B2, for which the IC50 came to 1.48 nM.

For the molecule B3, the IC50 worked out at 0.278 nM.

Turning to B4, the IC50 turned out to be 0.142 nM.

In the case of B5, the IC50 amounted to 0.116 nM.

The next experiment addresses rat amylin receptor (rat calcitonin receptor with rat RAMP 3) (rat) (UniProt P32214). Briefly: SPA competition vs 125I-rat amylin, membranes with rat CTR + rat RAMP3 (Assay VI).
Consider B1, for which the IC50 came to 1.16 nM.

Turning to B2, the IC50 turned out to be 0.091 nM.

Turning to B3, the IC50 came out at 0.146 nM.

For the molecule B4, the IC50 was 0.026 nM.

Take B5: the IC50 was determined as 0.098 nM.

The target of the next experiment is rat calcitonin receptor (rat) (UniProt P32214). Briefly: SPA competition vs 125I-calcitonin, membranes with rat CTR (Assay VIII).
On to B1, for which the IC50 was determined as 0.069 nM.

Take B2: the IC50 is 0.031 nM.

Regarding B3, the IC50 is 0.021 nM.

Turning to B4, the IC50 was 0.031 nM.

B5: the IC50 amounted to 0.028 nM.
